Assay results as given in PMC4973843, “Dimeric chlorite dismutase from the nitrogen‐fixing cyanobacterium C yanothece sp. PCC7425” (Molecular Microbiology, 2015).

Substrate: [O-][Cl+]O
Experiment: Clark-type oxygen electrode, O2 release
Assay type: biochemical, Cyanothece sp. PCC 7425
Settings: 50 mM citrate phosphate pH 5.0, 30°C

B1: CCld (chlorite dismutase from Cyanothece sp. PCC7425) (Cyanothece sp. PCC 7425) (protein)
chain: NNRYSFIGGRTGQWQVVKIRNVLGPGLQLVEKVNILNGAVAEIPLDSAWRLQGFASNIRYAIRTELEALQAVQPMLNRAEAILAVLIPIKKSAQWWEMAQDERRDIFERESHHTAVGLEYLPGVARRLLHCRDLGEEFDFLTWFEFAPEHSSAFNELLLRMRASKEWEYVEREVEVWLKRL
notes: heme b
**Q.** What does the source list for B1?
**A.** Km: 162 ± 10.0 µM; kcat: 1144 ± 23.8 s⁻¹
